# Data from patent US20210079089A1 (SURROZEN OPERATING, published 2021).
# T1: LRP6E3E4_O75581_631-1246 (Homo sapiens (Human), UniProt O75581 631-1246, biotinylated in the BLI/SPR assays (C-terminal biotin acceptor peptide))
# T1 construct: The entry holds residues 631-1246 of UniProt O75581 followed by a biotin acceptor peptide and eight His
# T1 sequence: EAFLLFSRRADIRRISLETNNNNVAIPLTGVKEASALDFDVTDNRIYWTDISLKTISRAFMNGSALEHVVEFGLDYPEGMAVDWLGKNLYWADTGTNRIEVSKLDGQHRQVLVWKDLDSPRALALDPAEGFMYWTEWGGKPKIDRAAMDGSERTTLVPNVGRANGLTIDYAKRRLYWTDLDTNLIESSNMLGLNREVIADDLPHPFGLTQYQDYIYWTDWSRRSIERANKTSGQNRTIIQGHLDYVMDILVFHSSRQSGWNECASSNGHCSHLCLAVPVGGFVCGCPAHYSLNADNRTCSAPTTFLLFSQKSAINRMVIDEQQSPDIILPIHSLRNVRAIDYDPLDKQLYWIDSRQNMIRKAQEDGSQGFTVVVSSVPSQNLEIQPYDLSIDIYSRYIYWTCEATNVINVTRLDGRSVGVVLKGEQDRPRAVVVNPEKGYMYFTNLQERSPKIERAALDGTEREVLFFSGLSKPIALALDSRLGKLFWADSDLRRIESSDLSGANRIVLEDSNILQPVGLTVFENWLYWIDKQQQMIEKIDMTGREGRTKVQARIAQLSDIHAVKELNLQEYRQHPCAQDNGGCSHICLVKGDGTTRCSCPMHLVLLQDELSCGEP
# T2: LRP6e1e2 (UniProt O75581 20-630, limits assumed, C-terminally biotinylated)
# T2 construct: domain: E1E2; also called LRP6 E1E2 domains
# T2 sequence (looked up): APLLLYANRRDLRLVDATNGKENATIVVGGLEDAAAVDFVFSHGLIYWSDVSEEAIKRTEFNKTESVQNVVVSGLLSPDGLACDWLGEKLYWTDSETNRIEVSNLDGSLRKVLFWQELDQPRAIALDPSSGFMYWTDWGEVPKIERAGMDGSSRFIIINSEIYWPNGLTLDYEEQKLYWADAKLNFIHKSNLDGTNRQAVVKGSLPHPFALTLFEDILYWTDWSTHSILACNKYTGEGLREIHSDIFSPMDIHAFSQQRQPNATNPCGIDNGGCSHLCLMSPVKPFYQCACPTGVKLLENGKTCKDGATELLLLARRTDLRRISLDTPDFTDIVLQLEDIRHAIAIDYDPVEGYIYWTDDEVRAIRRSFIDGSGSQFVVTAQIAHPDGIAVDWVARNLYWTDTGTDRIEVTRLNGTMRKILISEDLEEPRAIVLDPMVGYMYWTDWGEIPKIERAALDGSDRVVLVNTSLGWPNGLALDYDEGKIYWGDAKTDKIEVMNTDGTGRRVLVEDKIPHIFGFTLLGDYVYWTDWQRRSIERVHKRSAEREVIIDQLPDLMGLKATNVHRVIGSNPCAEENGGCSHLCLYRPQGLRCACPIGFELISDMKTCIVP
# T3: biotinylated-LRP6 CRD (UniProt O75581 631-1246, limits assumed, biotinylated)
# T3 construct: LRP6 has no CRD
# T3 sequence (looked up): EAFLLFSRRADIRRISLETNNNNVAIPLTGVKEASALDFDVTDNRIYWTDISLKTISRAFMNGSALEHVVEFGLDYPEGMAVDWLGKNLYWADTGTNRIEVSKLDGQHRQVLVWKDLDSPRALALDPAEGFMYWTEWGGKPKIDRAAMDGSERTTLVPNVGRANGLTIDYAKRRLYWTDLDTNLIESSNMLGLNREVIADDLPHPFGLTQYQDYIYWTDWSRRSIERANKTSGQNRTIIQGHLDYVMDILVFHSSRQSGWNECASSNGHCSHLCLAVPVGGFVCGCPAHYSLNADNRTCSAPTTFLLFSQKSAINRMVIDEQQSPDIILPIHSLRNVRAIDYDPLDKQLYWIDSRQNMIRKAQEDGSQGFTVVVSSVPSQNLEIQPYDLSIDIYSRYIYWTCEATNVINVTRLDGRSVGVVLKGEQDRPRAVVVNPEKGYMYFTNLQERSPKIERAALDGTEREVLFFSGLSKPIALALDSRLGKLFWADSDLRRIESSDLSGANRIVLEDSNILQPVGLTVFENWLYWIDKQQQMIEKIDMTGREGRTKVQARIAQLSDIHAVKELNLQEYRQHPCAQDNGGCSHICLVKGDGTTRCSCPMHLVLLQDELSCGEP
# T4: LRP6E3E4_O75581_631-1246 (Homo sapiens (Human), UniProt O75581 631-1246)
# T4 construct: also called LRP6E3E4 construct used for structural studies
# T4 sequence: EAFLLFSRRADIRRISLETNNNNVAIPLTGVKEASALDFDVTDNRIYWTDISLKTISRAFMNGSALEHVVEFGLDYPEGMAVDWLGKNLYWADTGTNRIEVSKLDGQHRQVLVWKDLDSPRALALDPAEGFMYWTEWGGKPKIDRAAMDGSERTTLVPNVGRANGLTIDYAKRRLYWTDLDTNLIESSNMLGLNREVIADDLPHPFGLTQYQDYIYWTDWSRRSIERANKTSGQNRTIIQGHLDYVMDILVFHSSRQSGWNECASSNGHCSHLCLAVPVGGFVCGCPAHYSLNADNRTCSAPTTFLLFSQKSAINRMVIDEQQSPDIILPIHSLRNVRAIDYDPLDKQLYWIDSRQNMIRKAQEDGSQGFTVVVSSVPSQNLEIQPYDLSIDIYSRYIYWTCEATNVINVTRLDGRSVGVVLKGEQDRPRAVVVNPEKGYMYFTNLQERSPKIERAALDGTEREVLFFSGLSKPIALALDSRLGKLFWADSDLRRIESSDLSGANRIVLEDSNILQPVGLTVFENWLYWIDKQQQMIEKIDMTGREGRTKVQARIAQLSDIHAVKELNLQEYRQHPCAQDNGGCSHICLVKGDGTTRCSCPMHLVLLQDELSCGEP
# Key:
# [1] = molecular target: T1, LRP6E3E4_O75581_631-1246; test: Octet BLI
# Description: (§1) Binding kinetics of antibody fragments to LRP5 extracellular domain (LRP5 ECD) and/or LRP6 extracellular domain (LRP6 ECD) protein targets was determined by bio-layer interferometry (BLI) using Octet Red 96 (PALL ForteBio, Fremont, Calif.) instruments at 30° C., 1000 rpm with streptavidin (SA) biosensors. C-terminal biotinylated LRP ECD recombinant protein was diluted to 20 nM in the running buffer (PBS, 0.05% Tween-20, 0.5% BSA, pH 7.2) and captured to the SA biosensor until coupling length reached 0.2 nm. Following capture of the LRP5 or LRP6, the SA biosensor with captured biotinylated-LRP5 or biotinylated LRP6 was dipped into wells containing the relevant antibody fragment at […] (0, 1.37, 4.12, 12.4, 37, 111.1, 333.3, 1000 nM) in running buffer, plus a well with only running buffer as a reference channel. KD was determined by global fitting, 1:1 binding model according to manufacturer recommended settings.
# [2] = molecular target: T2, LRP6e1e2; test: Octet BLI or BIAcore SPR
# [3] = molecular target: T2, LRP6e1e2; test: Octet BLI, affinity class
# Description: as §1
# [4] = molecular target: T3, biotinylated-LRP6 CRD; test: Octet BLI, biotinylated LRP6; wild type 009S-E04, not an alanine mutant
# Description: as §1
# One antibody fragment, 009S-E04, was selected for alanine-scanning mutagenesis of CDRs, and the respective LRP6 binding affinities of the various mutants were determined by Octet BLI as described in Example 1.
# [5] = molecular target: T1, LRP6E3E4_O75581_631-1246; test: Octet BLI or BIAcore SPR
# [6] = molecular target: T1, LRP6E3E4_O75581_631-1246; test: Octet BLI, affinity class
# Description: as §1
# [7] = molecular target: T2, LRP6e1e2; test: Octet BLI
# Description: as §1
# [8] = molecular target: T4, LRP6E3E4_O75581_631-1246; test: co-crystal structure (figure legend)
# Description: (§2) Structure of Lrp6E3E4:VHH/Fab complexes were determined by molecular replacement method using Phaser [Phaser crystallographic software. A. J. McCoy, R. W. Grosse-Kunstleve, P. D. Adams, M. D. Winn, L. C. Storoni, and R. J. Read. J Appl Crystallogr 40, 658-674 (2007)] with published structures Lrp6E3E4 [PDB code: 4AOP; Chen S, Bubeck D, MacDonald B T, Liang W X, Mao J H, Malinauskas T, Llorca O, Aricescu A R, Siebold C, He X, Jones E Y. Dev. Cell 21 848-61 (2011)] and a VHH or sdAb [PDB code: 6B20, chain E; Gulati S, Jin H, Masuho I, Orban T, Cai Y, Pardon E, Martemyanov K A, Kiser P D, Stewart P L, Ford C P, Steyaert J, Palczewski K. Nat Commun 91996 (2018)], followed by refinement and validation by MolProbity as implemented in Phenix [PHENIX: a comprehensive Python-based system for macromolecular structure solution. P. D. Adams, P. V. Afonine, G. Bunkoczi, V. B. Chen, I. W. Davis, N. Echols, J. J. Headd, L. W. Hung, G. J. Kapral, R. W. Grosse-Kunstleve, A. J. McCoy, N. W. Moriarty, R. Oeffner, R. J. Read, D. C. Richardson, J. S. Richardson, T. C. […]
# (§3) Diffraction quality crystals of Lrp6E3E4:VHH36 (concentration=14.0 mg/mL) were obtained by grid-screen optimization in a condition containing 1.6 M ammonium sulfate and 0.1 M Tris pH 8.2. […] Structure of Lrp6E3E4:VHH36 complex was determined at a resolution of 2.70 Å, and refined to Rcryst and Rfree factors of 18.6% and 22.8%, respectively.
# [9] = molecular target: T1, LRP6E3E4_O75581_631-1246; test: co-crystal structure, column Antigen
# Description: as §2, §3
# [10] = molecular target: T1, LRP6E3E4_O75581_631-1246; test: Octet BLI or BIAcore SPR; Table 1B (heavy-chain-only clones)
Binder,binding result [1],Kd [2] [nM],Kd [3] [nM],Kd [5] [nM],Kd [6] [nM],also measured
009S-G02 (VHH) VHH: AVQLVESGGGLVQAGGSLRLSCGVSGSIFSIYAMGWYRQAPGKERELVAVITSGGKTVYADSVKGRFTITEDAAKNTVYLQMNSLKAEDTAVYYCYADSRSSWYDEYLEHWGRGTLVTVSS,no binding,< 500,< 500,–,–,–
009S-E04 (VHH) VHH: DVQLVESGGGLVQAGGSLRLACAGSGRIFAIYDIAWYRHPPGNQRELVAMIRPVVTEIDYADSVKGRFTISRNNAMKTVYLQMNNLKPEDTAVYYCNAKRPWGSRDEYWGQGTQVTVSS,–,–,–,< 500,< 500,Kd [4]: < 100 nM
009S-D03 (VHH) VHH: DVQLVESGGGLVQPGGSLRLSCAAPGSIFSDGAMGWYRQAPGKQRELVAVISGGRTGYADFVKGRFTISRDNGKNTVNLQMNRLEPEDTAVYFCNTYPFPIYKKGYPFWGQGTQVTVSS,no binding,< 500,< 500,–,–,–
013S-C05 (HC SEQ ID NO 17) (VHH) VHH: EVQLVESGGGLVQPGGSLRLSCAVSRNIFPIDDMSWYRQAPGKQRELVATVTSGGRINYADSVKGRFTISRDGARRTIDLQMNNLKPEDTAVYYCNVDRTLYGKYKEYWGQGTLVTVSS,–,–,–,< 500,< 500,binding result [7]: no binding
"VHH36 (013S-D05) (VHH, Gln1 modified as pyroglutamate, construct of the crystal structure) VHH: QVKLEESGGGLVQAGGSLRLSCAASGRIFSIYDMGWFRQAPGKEREFVSGIRWSGGTSYADSVKGRFTISKDNAKNTIYLQMNNLKAEDTAVYYCGSRGYWGQGTLVTVSS",–,–,–,–,–,binding result [8]: binds
"VHH36 (013S-D05) (VHH, Gln1 modified as pyroglutamate (in the crystal structure), Construct of the crystal structure, with C-terminal GSGSG-His6; the complex was treated with carboxypeptidase A and B before crystallisation) VHH: QVKLEESGGGLVQAGGSLRLSCAASGRIFSIYDMGWFRQAPGKEREFVSGIRWSGGTSYADSVKGRFTISKDNAKNTIYLQMNNLKAEDTAVYYCGSRGYWGQGTLVTVSS",–,–,–,–,–,binding result [9]: binds
009S-D04 (VHH) VHH: QVKLEESGGGLVQPGGSLRLSCETSATIVSIYRINWYRQAPGKQREWVAGITSSGRTIYADSVKGRFTISRDNAKNTVYLQMNNLKPEDTAVYYCNAASTVTAWPYYGPDYWGKGTLVTVSS,–,–,< 500,–,< 500,Kd [10]: > 500 nM

# The next lines start with results.
binding result [1],Kd [2] [nM],Kd [3] [nM],Kd [5] [nM],Kd [6] [nM],Binder,also measured
no binding,< 500,< 500,–,–,009S-A04 (VHH) VHH: AVQLVESGGGLVQAGGSLRLSCAASGRTLSAYDMGWFRQAPGKERELVGGIRWSGGTTLYPDSVKGRFTISRDNAKNTVYLQMNSLKPEDSAVYYCYARTVIGGFGAFRAHWGQGTQVTVSS,–
no binding,< 500,< 500,–,–,009S-F03 (VHH) VHH: DVQLVESGGGLVQAGGSLRLSCAASGRTFSSYAMSWFRQAPGKEREFVAVIGRSGGIKYYADSVKGRFTISRDNTINTVYLQMNNLTPEDTAIYYCATRRPFNSYNTEQSYDSWGRGTLVTVSS,–
–,–,–,< 500,< 500,013S-D05 (HC SEQ ID NO 18) (VHH) VHH: QVKLEESGGGLVQAGGSLRLSCAASGRIFSIYDMGWFRQAPGKEREFVSGIRWSGGTSYADSVKGRFTISKDNAKNTIYLQMNNLKAEDTAVYYCGSRGYWGQGTLVTVSS,binding result [7]: no binding
